The DeepSol protein solubility set

experiment: soluble on expression in E. coli; label from the status in PepcDB or PDB records

Sequence | soluble on expression in E. coli
MTGKSVREVPMTEEILAESIALRLRRDILRGKLVPGTSIKERDNAAEMGVSRTPMREAIRILANEGLVQLRPSRSPIVTQLSLNEVVSFIEVLSALEMLAVTLACERATKIDIAHVRGAERKLATQYDRIDQVERFELDMDFHIALTRASHNQALSDTHMSYLRRLWYARFQSARNRHTKDRVLQQHAALVDAIERRDPTMAQTELSSHLENLRINVHAYFERAEREQLQLKNSA | not soluble
MTGMRKTLKATLAEARAQVEAALKEEGFGILTEIDVAATLKAKLGLEKPPYLILGACNPNLAARALEALPEIGLLLPCNVVLREAEEGVEVLIQDPKEMFRVLPEATQRALAPVAEEARTRLSRALSRL | soluble
MTGPTPTEAVDITVSVGGFKVGDQNYPINPKITFTNNTGQAIPGGTEFQFDIPVSAPDNAKDQSGGGLKVIASGHTRANNIGGLDGVMHRVSFSLPAWKDLPAGGTYELDMVYYLPISGPANYSVISGGKEFAFKFEQPDLPIGDLNAGTGGGGTTEPGSCDTAGLVTYPNLPQTDLEHHHHHH | soluble
MTGTYEQPVIDATYHNDDQGGHANQLVLKYVEDRKLSKVFKRICDSFKDYYNQPEDMTDEELDYQRVVSLSKSTQGKVNNRDTLIAFISDHNQLAEHLSMNYKEMTPEDLGAILESISQAFNHLYDMVVEGQLLVK | not soluble
MTGYACNHPNIYQSCNCQSFCQPYTHPHEMYYHHGYGCNGHCLDHQESMCEEDDECGMKKRKKHRKKNKKKKNKKKFRFSDEEDDEEKVAHHKKKPIEEDDDEFPLPPNSEEVAEASKSSKKEEDWEDDDKWERKFVSQTTTPAPRQAASGGGLGGLGLGNGGLFGISSGVGVGIPGVGPIGVSSGLGIGK | not soluble
MTIETIKRIIEEENVRFIRLQFTDINGTLKNLEITPDVFLESWEDGIMFDGSSIEGFVRIEESDMYLKPVLDTFAVLPWTVDGAKSARVICDVYTPDGKPFEGDPRYRLRRMMEKAEQLGYTPYAGPEMEFFILPINEKGEPVPEFLDHGGYFDLLPLSKVEEIRRDIAIALEKMGITVEATHHEVAPSQHEVDFRYDTFLRTADNAQTVKLVIKTMAIFHGYHATFMPKPFYGVNGSGMHVHMSLFRGDKNAFYDPDDPLGLSKELRYFVGGILKHAKALAAVTNPTINSYKRLVPGYEAPVYISWSVGNRSALIRIPKARGKATRLEYRSPDPSCNIYLAFAAILAAGLDGIINKIEPPAPVEENIYHMTSERREELNIESLPGSLKEAVEELKKDDVIIDALGEHIFEKFVEAAEKDWKEFSTYVTNWELQRYLYL | soluble
MTIGIDKINFYVPKYYVDMAKLAEARQVDPNKFLIGIGQTEMAVSPVNQDIVSMGANAAKDIITDEDKKKIGMVIVATESAVDAAKAAAVQIHNLLGIQPFARCFEMKEACYAATPAIQLAKDYLATRPNEKVLVIATDTARYGLNSGGEPTQGAGAVAMVIAHNPSILALNEDAVAYTEDVYDFWRPTGHKYPLVDGALSKDAYIRSFQQSWNEYAKRQGKSLADFASLCFHVPFTKMGKKALESIIDNADETTQERLRSGYEDAVDYNRYVGNIYTGSLYLSLISLLENRDLQAGETIGLFSYGSGSVVEFYSATLVEGYKDHLDQAAHKALLNNRTEVSVDAYETFFKRFDDVEFDEEQDAVHEDRHIFYLSNIENNVREYHRPE | soluble
MTIGQKNTNIDPRFPHHHPRPQSFWEARAKALESLLIEKGHLSSDAIERVIKHYEHELGPMNGAKVVAKAWTDPAFKQRLLEDSETVLRELGYYGLQGEHIRVVENTDTVHNVVVCTLCSCYPWPLLGLPPSWYKEPAYRARVVKEPRQVLKEFGLDLPDSVEIRVWDSSSEIRFMVLPQRPEGTEGMTEEELAKLVTRDSMIGVAKIEPPKVTVG | soluble
MTIHIDFLDETNEVTAEQIETIERLLAEAAALENVPDGAEVSVTFVDNERIRAMNRDYRGKDAPTDVLSFALEEEGEEEVHIVGADMPPVLGDIVISIPKAKEQAAAYGHSFMRELGFLAVHGFLHLLGYDHGTEEEERVMFAKQEDILARFGLTR | not soluble
MTIIAGTVVKGKQLGRKLGFPTANVDAKIHGLRNGVYGVLATVNHQFHLGVMNIGVKPTVGSNLEKTLEIFLFDFHRDIYGEKIECSILFKIREERRFDSLESLTKQIKKDISCVAKRFELIGIMAPNKKESLLSHQELNLPDLCFYKKCNNLYGVNRGVYNVIDNWFFEYGITQVAYRRIYILSFLSFLKEDNPKVSSKYIRFGAGGLADKLNRFISSYVEESEENILGLEHHHHHH | soluble
MTIKTPTVKVPGLGTDPLEQRIKEKEKKWKYKIAVLSGKGGVGKSTVAVNLTAALAKMGYFVGILDADIHGPNVAKMLGVDKEEVYAEKFDDGHFEMIPPTTDFMGQVTPIKVMSMGMMVPEDQPVIWRGPLVTKAIKQLLGDVKWGSLDFMIIDFPPGTGDEILTVVQSIKLDAAIIVTTPQEVALLDTGKAVNMMKKMEVPYVAVVENMSYLICPHCGNKIDIFGEGGGEKLAQKEGVDFLGKIPIDLKAREASDLGIPIVLYEDTPAAKAFMELAEKLVNKLKEIKGDGGKELEHHHHHH | soluble
MTILEELNDSSIPQRLDNHIFFGSVHSLTHTDFLVENNIRFFINVDLSTELISHIYHEVRSKFAHEIVIVNIDNDSQIPIESDLVRSFHWHNTSLLQQLIHHLDFLSGINNHGEPLTPPPESHYRNAYVQFDHPSDSVSILDKLLYGNKSEYSRTNIFQVTNEAKFQVFNDLITIFKYSIAQGGNTNSNILVLSENGSTDENLISLLMSTVLKENPTFNVYQALQFVKSIAVIPDTVRDEKILWVTGFINYQELIKKNEMYWGLGSQKGRKLTSFASPISKVERKQRRRDDQNIMRSKLPQQRQNPFCSTERPKRARCD | not soluble
MTIRVAINGFGRIGRNFLRCWFGRQNTDLEVVAINNTSDARTAAHLLEYDSVLGRFNADISYDENSITVNGKTMKIVCDRNPLNLPWKEWDIDLVIESTGVFVTAEGASKHIQAGAKKVLITAPGKAEGVGTYVIGVNDSEYRHEDFAVISNASCTTNCLAPVAKVLHDNFGIIKGTMTTTHSYTLDQRILDASHRDLRRARAAAVNIVPTTTGAAKAVALVIPELKGKLNGIALRVPTPNVSVVDLVVQVEKPTITEQVNEVLQKASQTTMKGIIKYSDLPLVSSDFRGTDESSIVDSSLTLVMDGDLVKVIAWYDNEWGYSQRVVDLAELAARKSGRLGLVQTLLISSQDSLPLTGGFFVAKREHPRSQDSINPSGPD | soluble
MTIYDINFAELYQQHLIACNHYNLPPIKWDKKAVKMAENLVGKPSAYNQQLLQAMNVQTDEAVLDIGCGPGTFAVPLAQQGSTVYALDYSNGMLDCLAQFKQKFGLHHLTTFHKSWADNWDDVPQADVVLASRSTLVDDLDDMIEKLCAKAKKRVFLTSVTQRHFLDEGVFEAIGREDIGFPTYIYLLNRLYQKGIQANLNFIETESGCFQGESYEDLLASVEFSLGELSEKEKQGLKAFYDRKQANNEPISHGQKKWALIWWNVDRILEHHHHHH | soluble
MTIYMFNNVNLQRQYMIDTIIFDFDGVILNSEPMHFEAIVQVLNQSGINLAYEEYMTHYLGLSDISLFPKILNDKGLAFSSTEIHQVIERKVRVYNELIENSEQLPMTPDLDWFLVRVARQYGKIGICSGSNRHSIIKILEKIHCGRLACYFKTIVSCEDVSLGKPSPEGYLLAAHRLQSKPENCLVIEDSEHGVAAAKAGGMLVAGLLTTLSRDLLANADMIVHDFKELDHLLNSH | not soluble
MTKDLLLELGLEELPAYVVTPSEKQLGQKMVKFLEDHRLSFETVQIFSTPRRLAVRVKGLADQQTDLTEDFKGPSKKIALDAEGNFSKAAQGFVRGKGLSVDDIEFREVKGEEYVYVTKHETGKSAIDVLASVTEVLTELTFPVNMHWANNSFEYIRPVHTLVVLLDDQALELDFLDIHSGRISRGHRFLGSDTEISSASSYEDDLRQQFVIADAKERQQMIVNQIHAIEEKKNISVEIDEDLLNEVLNLVEYPTAFLGSFDEKYLDVPEEVLVTSMKNHQRYFVVRDRDGKLLPNFISVRNGNAEHIENVIKGNEKVLVARLEDGEFFWQEDQKLNIADLVEKLKQVTFHEKIGSLYEHMDRVKVISQYLAEKADLSDEEKLAVLRAASIYKFDLLTGMVDEFDELQGIMGEKYALLAGEQPAVAAAIREHYMPTSADGELPETRVGAILALADKFDTLLSFFSVGLIPSGSNDPYALRRATQGIVRILEAFGWDIPLDELVTNLYGLSFASLDYANQKEVMAFISARIEKMIGSKVPKDIREAVLESDTYI | not soluble
MTKGKGRNPGASGLDKHLKRKTHLERSQPKSRQHLGQLEKHKDHVLRAKKRKVKVRRLQEIKRAAAQRNPDEFNIGMTKAVMDVANGRMRQRRVRLVESDRKKDMQTTIEHNRRNVQYLEFKAQADQQRATELLNEEAAAALTSTAPQNKHIVFVNSEEEFRSFNPLKHFDVTPEMMRQHPAVRGRIRVLEKTVMPEEILMSGGHQIKSAAQKRKERREVQEKMRRSGADATPETRAAFVERLRAKKELKQYQFTDLLEEVKRESEATASSSKGAPGDDGEQEEAAAQDEVTRLLEWRREQERQAAIATARHVREVGQRIQRSKSLSALAKSIRKQSQGIKRQMEQRRESRFKPGATRRAR | not soluble
MTKINVPLETSNKTTSDLEKKKPFSVLLMGSDARPGETNGRADTIILATANKQQNAVEMVSIPRDTKVDYGNGDIGKINASYSNGGPSGTVSAVEKLMPGVPVDYFISINMEGFKDLVDAVGGITVYNDIDLTEVNSKFVKGNITLNGTDALQYVRIRHEDPRGDFGRQDRQRDVIIGIANKVISSSGVSNFESIMKAVGDNFQTNMTLTDITSMATNYSSVLKNVDSQELKGEGEMIYSESYGFDLYYFAPDETDLERVINMFKKSLDITELEHHHHHH | soluble
MTKKIIGIAGNQLLQAAEVFHGNQVTYTPQGFVSAVQAAGGVPLVLPIGPKELAATYIQQIDKLLLAGGQDVAPEFYGQEPHIKLEETNRDRDEFELALIEEALKQNKPIFAVCRGMQLVNVALGGTLYQDLSMYPQWSVKHGQQPTQPIFATHRIDVEPDSQLSNIYGTTGQVNSYHHQALHTLGKDLRVTAWSSDGLAEAVESTNEQQPLLAVQWHPELMYARDAKSQALFNYFVQKL | not soluble
MTKKSTKSEAASKTKKSGVPETGAQGVRAGGADHADAAHLGTVNNALVNHHYLEEKEFQTVAETLQRNLATTISLYLKFKKYHWDIRGRFFRDLHLAYDEFIAEIFPSIDEQAERLVALGGSPLAAPADLARYSTVQVPQETVRDARTQVADLVQDLSRVGKGYRDDSQACDEANDPVTADMYNGYAATIDKIRWMLQAIMDDERLD | soluble
MTKPIVFQNARIIDPSRTIDEIGTVIVENGLIIAAGKEALNQGIPEGAEIINAQNKAILPGLVDARVFVGEPGNESRETLASASQSAAAGGITSFLMMPNTNPVIDNIALVKFITHTAQEISSVNIYPVAAITQGFNGQEIAEFGLLKDAGAVAFSEGKKTLQNSSVMRRAMTYARDFDVPLMHETQDKDLIGQGVMNEGLLASWLGLSGIPREAEVIPLERDLRLAALTQTRYHAAQISTALSADALRLSKQRSEKISAGVSINHLSFNENDIGEYRTSFRLIPPLRTEEDRIAMIEAIKDGTVDIIVSSHDPQSLDKKNLPFSEAAIGAIGMETLLSAALRLYHNGTISLLRLTELLSTTPAKLFDLNAGTLRKGTHADLILVDLDEPWIVSPEKLYSRSKNTPFEKAHFQGRVLQTFVKGQSIFKLDQ | not soluble
